Laboratory results reported in patent publication US20260008847A1 (ELPISCIENCE SUZHOU BIOPHARMA, published 2026).

B1: 043c (antibody, V domains shown)
VH: QVQLQQSGAELAKPGASVKLSCKASGYTFTSYWMYWVKQRPGQGLEWIGHINPSSGYTKYNQKFKDKATLTADKSSSTAYMQLSSLTYEDSAVYYCARDPNWDNYWGQGTTLTVSS
VL: DIVMTQSHKFMSTSVGDRVSITCKASQDVSIAVAWYQQKPGQSPKLLIYSASYRYTGVPDRFTGSGSGTDFTFTISSVQAEDLAVYYCQQHYSTPYTFGGGTKLEIK
notes: Human IgG4 chimeric antibody with S228P mutation at the Fc region; also called chimeric antibody 043c; parental antibody 043c
B2: 1E1 (antibody, V domains shown)
VH: QVQLQQWGAGLLKPSETLSLTCAVYGGSFSGYYWSWIRQPPGKGLEWIGEINHSGSTNYNPSLKSRVTISVDTSKNQFSLKLSSVTAADTAVYYCARLPTRWVTTRYFDLWGRGTLVTVSS
VL: QSVLTQPPSVSGAPGQRVTISCTGSSSNIGAGYDVHWYQQLPGTAPKLLIYGNSNRPSGVPDRFSVSKSGASASLAITGLQAEDEADYYCQSFDNSLSAYVFGGGTQLTVL
notes: Human IgG4 monoclonal antibody with S228P in the constant region, made according to US 2018/0298096 A1; also called benchmark antibody 1E1
B3: J-19 (antibody, V domains shown)
VH: QVTLKESGPGILQPSHTLSLTCSFSGFSLNTYAMGVSWIRQPSGKGLEWLASIWWNGNKYNNPSLKSRLTVSKDTSNNQAFLKVTSVDTADTATYYCAHSRIIRFTDYVMDAWGQGASVTVSS
VL: DIQMTQSPASLSTFLGEPVTIECRASEDIYNDLAWYQQKPGKSPQLLIYNANSLHTGVPSRFSGSGSGTQYSLKINSLQSEDVASYFCQQYYDYPLTFGSGTKLEIK
notes: Human IgG4 monoclonal antibody with S228P in the constant region, made according to WO 2019/126514 A2; also called benchmark antibody J-19

Assays:
[1] = molecular target: T1, 6×His-tagged human LILRB2 ECD recombinant protein (human, UniProt Q8N423 22-458, limits assumed); experiment: Bio-Layer Interferometry (Octet), 1:1 model, human LILRB2 ECD
T1 construct: Bought protein; not shown: 6×His-tag
T1 sequence (Q8N423 22-458 limits assumed): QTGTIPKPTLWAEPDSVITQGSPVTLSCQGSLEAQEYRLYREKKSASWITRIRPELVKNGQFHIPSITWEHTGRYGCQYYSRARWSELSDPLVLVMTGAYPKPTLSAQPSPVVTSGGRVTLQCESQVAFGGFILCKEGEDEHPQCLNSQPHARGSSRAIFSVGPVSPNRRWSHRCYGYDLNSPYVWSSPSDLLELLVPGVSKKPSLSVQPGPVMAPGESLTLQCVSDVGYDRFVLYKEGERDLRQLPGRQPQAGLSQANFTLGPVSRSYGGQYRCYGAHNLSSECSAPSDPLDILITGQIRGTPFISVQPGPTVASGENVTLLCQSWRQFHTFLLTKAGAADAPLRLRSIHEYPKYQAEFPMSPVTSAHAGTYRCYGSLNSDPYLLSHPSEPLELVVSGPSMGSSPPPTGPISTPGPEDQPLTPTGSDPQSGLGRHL

[2] = molecular target: T2, Human LILRB3 ECD recombinant protein with 6×His-tag (human, UniProt O75022 24-443); experiment: ELISA: plate coated with LILRB3 ECD recombinant protein [continued) G]
T2 construct: range 1-443; Bought protein; not shown: 6×His-tag

[3] = molecular target: T3, Human LILRA5 ECD recombinant protein with 6×His-tag (human, UniProt A6NI73 42-268); experiment: ELISA: plate coated with LILRA5 ECD recombinant protein, antibody at 0.5 ug/mL (method of example 3.2.1); mean OD450 printed over the bar [continued) E]
T3 construct: range 1-268; Bought protein; not shown: 6×His-tag
T3 sequence (A6NI73 42-268 limits assumed, form in doubt): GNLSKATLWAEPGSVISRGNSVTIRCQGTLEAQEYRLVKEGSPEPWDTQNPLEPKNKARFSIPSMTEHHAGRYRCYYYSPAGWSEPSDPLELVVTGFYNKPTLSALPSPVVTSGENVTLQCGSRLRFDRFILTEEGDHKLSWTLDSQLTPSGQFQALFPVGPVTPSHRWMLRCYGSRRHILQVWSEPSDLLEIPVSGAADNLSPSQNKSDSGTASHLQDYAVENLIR

[4] = molecular target: T4, Human LILRA2 ECD recombinant protein with His-tag (human, UniProt Q8N149 24-449); experiment: ELISA: plate coated with LILRA2 ECD recombinant protein, antibody at 0.5 ug/mL (method of example 3.2.1); mean OD450 printed over the bar [continued) B]
T4 construct: range 24-449; Bought protein; not shown: His-tag
T4 sequence (Q8N149 24-449 limits assumed): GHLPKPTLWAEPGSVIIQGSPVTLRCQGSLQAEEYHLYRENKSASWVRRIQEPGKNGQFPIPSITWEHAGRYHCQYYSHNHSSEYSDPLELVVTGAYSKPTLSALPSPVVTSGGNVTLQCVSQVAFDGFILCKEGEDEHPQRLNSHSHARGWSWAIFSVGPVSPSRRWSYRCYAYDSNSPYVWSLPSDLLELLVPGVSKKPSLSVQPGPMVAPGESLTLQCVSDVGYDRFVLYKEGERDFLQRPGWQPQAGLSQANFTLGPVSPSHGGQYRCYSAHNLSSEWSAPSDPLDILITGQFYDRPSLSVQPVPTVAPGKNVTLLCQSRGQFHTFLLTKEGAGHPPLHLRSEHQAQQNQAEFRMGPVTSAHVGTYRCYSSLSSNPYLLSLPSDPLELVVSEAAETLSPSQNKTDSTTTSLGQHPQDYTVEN

[5] = molecular target: T5, Human LILRB1 ECD recombinant protein with 6×His-tag (human, UniProt Q8NHL6 24-458, limits assumed); experiment: ELISA: plate coated with LILRB1 ECD recombinant protein [continued) F]
T5 construct: Bought protein; not shown: 6×His-tag
T5 sequence (Q8NHL6 24-458 limits assumed): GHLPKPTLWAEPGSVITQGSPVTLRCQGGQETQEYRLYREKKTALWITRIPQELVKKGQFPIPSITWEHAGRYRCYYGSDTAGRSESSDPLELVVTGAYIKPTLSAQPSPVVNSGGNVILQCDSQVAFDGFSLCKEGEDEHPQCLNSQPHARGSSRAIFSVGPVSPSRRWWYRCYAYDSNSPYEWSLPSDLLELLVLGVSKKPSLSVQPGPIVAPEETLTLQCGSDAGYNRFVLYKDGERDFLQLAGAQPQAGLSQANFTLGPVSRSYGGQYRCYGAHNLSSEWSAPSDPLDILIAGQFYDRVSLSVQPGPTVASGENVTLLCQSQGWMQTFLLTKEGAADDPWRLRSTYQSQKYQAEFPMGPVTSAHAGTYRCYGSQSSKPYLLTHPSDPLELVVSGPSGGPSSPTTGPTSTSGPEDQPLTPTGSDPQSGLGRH

[6] = molecular target: T6, Human LILRB5 ECD recombinant protein with 6×His-tag (human, UniProt O75023 24-458, limits assumed); experiment: ELISA: plate coated with LILRB5 ECD recombinant protein, antibody at 0.5 ug/mL (method of example 3.2.1); mean OD450 printed over the bar [continued) I]
T6 construct: Bought protein; not shown: 6×His-tag
T6 sequence (O75023 24-458 limits assumed): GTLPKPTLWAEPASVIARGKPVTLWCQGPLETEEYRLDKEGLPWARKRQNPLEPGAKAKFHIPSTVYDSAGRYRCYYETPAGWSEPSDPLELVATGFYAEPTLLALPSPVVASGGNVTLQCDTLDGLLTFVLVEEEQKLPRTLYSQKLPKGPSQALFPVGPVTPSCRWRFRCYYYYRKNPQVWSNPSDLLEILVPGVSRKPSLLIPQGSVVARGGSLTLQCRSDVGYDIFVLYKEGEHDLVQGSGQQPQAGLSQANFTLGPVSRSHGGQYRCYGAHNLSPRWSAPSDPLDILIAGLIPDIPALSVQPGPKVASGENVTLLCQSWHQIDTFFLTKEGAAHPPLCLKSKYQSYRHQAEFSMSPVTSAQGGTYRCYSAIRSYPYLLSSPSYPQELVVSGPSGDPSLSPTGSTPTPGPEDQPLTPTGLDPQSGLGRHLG

[7] = molecular target: T7, Human LILRB2 stably expressed on EL4 cells (EL4/LILRB2) (human, UniProt Q8N423 22-597); experiment: Competitive FACS: EL4/LILRB2 cells preincubated with 10 ug/mL antibody, then HLA-G complex tetramer added; inhibition of the ligand's binding to the cells [panel HLA-G]
T7 construct: also called EL4-LILRB2 cells; cell membrane human LILRB2
T7 sequence (Q8N423 22-597 limits assumed): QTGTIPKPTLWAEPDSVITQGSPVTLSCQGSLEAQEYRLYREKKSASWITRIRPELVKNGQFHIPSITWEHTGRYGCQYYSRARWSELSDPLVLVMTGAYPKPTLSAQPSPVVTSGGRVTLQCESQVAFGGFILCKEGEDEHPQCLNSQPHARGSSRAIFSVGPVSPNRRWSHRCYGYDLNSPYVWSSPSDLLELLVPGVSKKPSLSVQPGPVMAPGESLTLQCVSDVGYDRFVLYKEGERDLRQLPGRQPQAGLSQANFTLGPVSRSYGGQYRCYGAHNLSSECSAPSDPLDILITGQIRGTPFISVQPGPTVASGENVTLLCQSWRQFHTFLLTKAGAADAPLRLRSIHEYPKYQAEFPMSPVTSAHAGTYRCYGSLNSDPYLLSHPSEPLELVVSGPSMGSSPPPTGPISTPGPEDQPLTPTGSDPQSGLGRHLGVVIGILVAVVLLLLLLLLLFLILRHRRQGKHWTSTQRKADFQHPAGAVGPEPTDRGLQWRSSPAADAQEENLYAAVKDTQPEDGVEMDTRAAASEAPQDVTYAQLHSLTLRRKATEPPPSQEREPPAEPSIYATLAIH
Protocol: (§1) The blocking activities were determined by quantitating the blockade of the ligands binding to EL4/LILRB2 cells.

[8] = molecular target: T8, Human LILRA3 ECD recombinant protein with 6×His-tag (human, UniProt Q8N6C8 24-439); experiment: ELISA: plate coated with LILRA3 ECD recombinant protein, antibody at 0.5 ug/mL (method of example 3.2.1); mean OD450 printed over the bar [continued) C]
T8 construct: range 1-439; Bought protein; not shown: 6×His-tag
T8 sequence (Q8N6C8 24-439 limits assumed, form in doubt): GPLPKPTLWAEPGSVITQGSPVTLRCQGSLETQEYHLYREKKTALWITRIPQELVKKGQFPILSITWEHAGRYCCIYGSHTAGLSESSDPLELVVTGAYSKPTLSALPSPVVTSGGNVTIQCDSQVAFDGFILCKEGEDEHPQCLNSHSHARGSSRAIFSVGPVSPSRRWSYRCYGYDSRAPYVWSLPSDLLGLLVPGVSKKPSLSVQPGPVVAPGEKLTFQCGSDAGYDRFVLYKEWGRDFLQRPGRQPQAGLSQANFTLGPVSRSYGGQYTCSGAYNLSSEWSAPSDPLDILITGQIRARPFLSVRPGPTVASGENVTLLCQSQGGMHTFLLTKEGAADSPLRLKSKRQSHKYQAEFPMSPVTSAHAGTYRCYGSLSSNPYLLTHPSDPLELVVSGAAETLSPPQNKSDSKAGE

[9] = molecular target: T1, 6×His-tagged human LILRB2 ECD …; experiment: ELISA: plate coated with 6xHis-tagged human LILRB2 ECD, antibody at 0.5 ug/mL, HRP detection antibody; mean OD450 printed over the bar
Protocol: (§2) Briefly, 0.5 μg/mL anti-LILRB2 antibodies were incubated in human LILRB2 ECD recombinant protein-coated ELISA plate at 37° C. for 1 hour. After washing, horseradish peroxidase (HRP) labeled detection antibody was added and incubated at 37° C. for 1 hour. Color development was conducted by the addition of 100 μl/well of TMB (3,3′,5,5′-Tetramethylbenzidine) solution. After incubation at room temperature (RT) for 10-15 minutes, the reaction was stopped by adding 100 μl 1N HCl. Then the plates were read immediately using plate reader for optical density at 450 nm.

[10] = molecular target: T9, Human LILRA1 ECD recombinant protein with 6×His-tag (human, UniProt O75019 17-461); experiment: ELISA: plate coated with LILRA1 ECD recombinant protein
T9 construct: range 1-461; Bought protein; not shown: 6×His-tag
T9 sequence (O75019 17-461 limits assumed): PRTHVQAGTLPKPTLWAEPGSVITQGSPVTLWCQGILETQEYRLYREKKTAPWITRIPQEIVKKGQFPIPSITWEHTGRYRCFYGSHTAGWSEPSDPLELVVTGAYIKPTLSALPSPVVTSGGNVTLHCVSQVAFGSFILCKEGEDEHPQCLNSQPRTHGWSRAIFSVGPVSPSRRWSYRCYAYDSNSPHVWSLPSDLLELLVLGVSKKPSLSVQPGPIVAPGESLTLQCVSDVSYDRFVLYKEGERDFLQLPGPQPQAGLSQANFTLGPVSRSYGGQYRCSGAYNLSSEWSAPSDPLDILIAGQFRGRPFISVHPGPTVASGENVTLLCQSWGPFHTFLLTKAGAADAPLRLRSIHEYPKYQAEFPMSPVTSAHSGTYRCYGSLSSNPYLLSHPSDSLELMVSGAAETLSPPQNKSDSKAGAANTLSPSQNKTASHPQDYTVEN

[11] = molecular target: T7, Human LILRB2 stably expressed on EL4 …; experiment: Competitive FACS: EL4/LILRB2 cells preincubated with 10 ug/mL antibody, then ANGPTL4 added; inhibition of the ligand's binding to the cells [panel ANGPTL4]
Protocol: as §1

[12] = molecular target: T1, 6×His-tagged human LILRB2 ECD …; experiment: Octet tandem binning on captured 6×His LILRB2 ECD; competitor (Ab1) J-19
Protocol: Briefly, the HIS1K sensors were hydrolyzed for 10 minutes followed by capture of 6×His-tagged human LILRB2 ECD recombinant protein to 0.3 nm. The LILRB2 captured sensors were then exposed to Ab1 and Ab2 in tandem or Ab2 directly. The binding signals of Ab2 to LILRB2 under different conditions were detected respectively. Finally, the relative binding signals of Ab2 in tandem were calculated by normalization. High relative binding signals represent low competition between Ab2 and Ab1 for binding antigen. Likewise, low relative association signals represent high competition between Ab2 and Ab1.

[13] = molecular target: T7, Human LILRB2 stably expressed on EL4 …; experiment: Competitive FACS: EL4/LILRB2 cells preincubated with 10 ug/mL antibody, then ANGPTL1 added; inhibition of the ligand's binding to the cells [panel ANGPTL1]
Protocol: as §1

[14] = molecular target: T7, Human LILRB2 stably expressed on EL4 …; experiment: Competitive FACS: EL4/LILRB2 cells preincubated with 10 ug/mL antibody, then MAG ECD added; inhibition of the ligand's binding to the cells [panel MAG]
Protocol: as §1

[15] = molecular target: T7, Human LILRB2 stably expressed on EL4 …; experiment: Competitive FACS: EL4/LILRB2 cells preincubated with 10 ug/mL antibody, then ANGPTL2 added; inhibition of the ligand's binding to the cells [panel ANGPTL2]
Protocol: as §1

[16] = molecular target: Human LILRB4 ECD recombinant protein with 6×His-tag (human) (UniProt Q8NHJ6); experiment: ELISA: plate coated with LILRB4 ECD recombinant protein, antibody at 0.5 ug/mL (method of example 3.2.1); mean OD450 printed over the bar [continued) H]
[17] = molecular target: T2, Human LILRB3 ECD recombinant protein …; experiment: ELISA: plate coated with LILRB3 ECD recombinant protein, antibody at 0.5 ug/mL (method of example 3.2.1); mean OD450 printed over the bar [continued) G]
Protocol: as §2

[18] = molecular target: T4, Human LILRA2 ECD recombinant protein …; experiment: ELISA: plate coated with LILRA2 ECD recombinant protein [continued) B]
Protocol: as §2

[19] = molecular target: T9, Human LILRA1 ECD recombinant protein …; experiment: ELISA: plate coated with LILRA1 ECD recombinant protein, antibody at 0.5 ug/mL (method of example 3.2.1); mean OD450 printed over the bar
Protocol: as §2

Row | Binder | Kd [1] | koff [1] | kon [1] | binding result [2] | OD450 [3] | OD450 [4] | binding result [5] | OD450 [6] | Inhibition (%) [7] | OD450 [8] | OD450 [9] | binding result [10] | Inhibition (%) [11] | relative binding signal of Ab2 in tandem [12] | Inhibition (%) [13] | Inhibition (%) [14] | Inhibition (%) [15] | OD450 [16] | OD450 [17] | binding result [18] | also measured
1 | B1 | 0.74 nM | 0.000557 s⁻¹ | 756000 M⁻¹ s⁻¹ | no binding (tested: 0.5 ug/mL) | 0.08 | 0.08 | no binding (tested: 0.5 ug/mL) | 0.08 | 100% | 0.09 | 2.72 | no binding (tested: 0.5 ug/mL) | 63% | 100% | 71% | 90% | 93% | 0.11 | 0.08 | no binding (tested: 0.5 ug/mL) | OD450 [19]: 0.15
2 | B2 | 8.07 nM | 0.00204 s⁻¹ | 253000 M⁻¹ s⁻¹ | no binding (tested: 0.5 ug/mL) | 0.07 | 0.07 | no binding (tested: 0.5 ug/mL) | 0.07 | 100% | 0.07 | 1.42 | no binding (tested: 0.5 ug/mL) | 54% | 17% | 70% | 93% | 94% | 0.1 | 0.07 | no binding (tested: 0.5 ug/mL) | OD450 [19]: 0.15
3 | B3 | 2.14 nM | 0.00178 s⁻¹ | 830000 M⁻¹ s⁻¹ | no binding (tested: 0.5 ug/mL) | 0.09 | 0.08 | no binding (tested: 0.5 ug/mL) | 0.09 | 100% | 0.08 | 3.27 | no binding (tested: 0.5 ug/mL) | 59% | -3% | 70% | 13% | 97% | 0.14 | 0.09 | no binding (tested: 0.5 ug/mL) | OD450 [19]: 0.16
